The target of the test is T1, recombinant GST-BIK1 (Arabidopsis thaliana, UniProt O48814 1-395).
T1 construct: BIK1, receptor-like cytoplasmic kinase of Arabidopsis thaliana; source: recombinant protein
T1 sequence (looked up): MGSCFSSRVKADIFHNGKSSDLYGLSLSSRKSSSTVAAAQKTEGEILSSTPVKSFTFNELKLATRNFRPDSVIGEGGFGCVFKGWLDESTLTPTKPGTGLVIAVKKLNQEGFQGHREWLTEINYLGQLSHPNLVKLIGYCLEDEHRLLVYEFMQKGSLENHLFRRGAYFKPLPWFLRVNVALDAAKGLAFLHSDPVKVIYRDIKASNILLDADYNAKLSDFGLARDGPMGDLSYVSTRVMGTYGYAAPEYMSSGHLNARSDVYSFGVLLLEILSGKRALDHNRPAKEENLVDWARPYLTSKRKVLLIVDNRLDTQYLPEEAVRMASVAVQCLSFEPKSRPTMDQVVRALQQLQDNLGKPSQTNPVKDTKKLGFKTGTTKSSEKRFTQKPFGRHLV
Nature of the test: pull-down; recombinant MBP-PP2C38 and GST-BIK1 in column buffer (50 mM Tris pH 7.5, 50 mM NaCl, 0.2% IGEPAL CA-630), 4°C; MBP pull-down on amylose resin. Particulars: both partners purified.

This note sets out measurements from article PMC4975489, “The Arabidopsis Protein Phosphatase PP2C38 Negatively Regulates the Central Immune Kinase BIK1” (PLoS Pathogens, 2016).

B1: recombinant MBP-PP2C38 (enzyme, Arabidopsis thaliana, UniProt Q9LHJ9 1-385, looked up)
chain: MVSSATILRMVAPCWRRPSVKGDHSTRDANGRCDGLLWYKDSGNHVAGEFSMSVIQANNLLEDHSKLESGPVSMFDSGPQATFVGVYDGHGGPEAARFVNKHLFDNIRKFTSENHGMSANVITKAFLATEEDFLSLVRRQWQIKPQIASVGACCLVGIICSGLLYIANAGDSRVVLGRLEKAFKIVKAVQLSSEHNASLESVREELRSLHPNDPQIVVLKHKVWRVKGIIQVSRSIGDAYLKKAEFNREPLLAKFRVPEVFHKPILRAEPAITVHKIHPEDQFLIFASDGLWEHLSNQEAVDIVNTCPRNGIARKLIKTALREAAKKREMRYSDLKKIDRGVRRHFHDDITVIVVFLDSHLVSRSTSRRPLLSISGGGDLAGPST
notes: PP2C38, protein phosphatase 2C of Arabidopsis thaliana (At3g12620); 'PP2C38 CDS was inserted between BamHI and SalI restriction sites of pMAL-c4E'; source: recombinant protein (PP2C38 CDS in pMAL-c4E, NEB)
Consider B1, for which the binding result is “binds”.
